Measurements reported in publication PMC7718890.

Assays:
CarD R47E;MTB RNAP (WT) = CarD R47E;MTB RNAP (WT) (Mycobacterium …, UniProt P9WJG3;P9WGZ1;P9WGY9;P9WGY7;P9WGY5 1-162;1-347;1-1178;1-1316;1-110, R47E|); assay: competition (fluorescence polarization); conditions: protein: recombinant;recombinant; tags: ;; copies: 1;2;1;1;1; blunt
CarD K90A;MTB RNAP (WT) = CarD K90A;MTB RNAP (WT) (Mycobacterium …, UniProt P9WJG3;P9WGZ1;P9WGY9;P9WGY7;P9WGY5 1-162;1-347;1-1178;1-1316;1-110, K90A|); assay: competition (fluorescence polarization); conditions: protein: recombinant;recombinant; tags: ;; copies: 1;2;1;1;1; blunt

B1: rrnAP3 native 61 bp (dsDNA)
DNA 1: GATGACCGAACCTGGTCTTGACTCCATTGCCGGATTTGTATTAGACTGGCAGGGTTGCCCC
DNA 2: GGGGCAACCCTGCCAGTCTAATACAAATCCGGCAATGGAGTCAAGACCAGGTTCGGTCATC
Work on B1 yielded a Ki (CarD R47E;MTB RNAP (WT)) of 129 ± 14 nM and a Ki (CarD K90A;MTB RNAP (WT)) of 85 ± 6 nM.
